Measured values: PMC6510727 (2019)
Read-outs that look alike come from different tables or passages of the source.

Experiments:
transducin α (Tα*) = transducin α (Tα*) (Bos taurus, UniProt P04695); assay: PDE activation assay fit (membranes)
[1] = molecular target: T1, PDE catalytic subunit (PDEcat) (Bos taurus, UniProt P11541); assay: PDE activity assay (membranes)
T1 chain 1: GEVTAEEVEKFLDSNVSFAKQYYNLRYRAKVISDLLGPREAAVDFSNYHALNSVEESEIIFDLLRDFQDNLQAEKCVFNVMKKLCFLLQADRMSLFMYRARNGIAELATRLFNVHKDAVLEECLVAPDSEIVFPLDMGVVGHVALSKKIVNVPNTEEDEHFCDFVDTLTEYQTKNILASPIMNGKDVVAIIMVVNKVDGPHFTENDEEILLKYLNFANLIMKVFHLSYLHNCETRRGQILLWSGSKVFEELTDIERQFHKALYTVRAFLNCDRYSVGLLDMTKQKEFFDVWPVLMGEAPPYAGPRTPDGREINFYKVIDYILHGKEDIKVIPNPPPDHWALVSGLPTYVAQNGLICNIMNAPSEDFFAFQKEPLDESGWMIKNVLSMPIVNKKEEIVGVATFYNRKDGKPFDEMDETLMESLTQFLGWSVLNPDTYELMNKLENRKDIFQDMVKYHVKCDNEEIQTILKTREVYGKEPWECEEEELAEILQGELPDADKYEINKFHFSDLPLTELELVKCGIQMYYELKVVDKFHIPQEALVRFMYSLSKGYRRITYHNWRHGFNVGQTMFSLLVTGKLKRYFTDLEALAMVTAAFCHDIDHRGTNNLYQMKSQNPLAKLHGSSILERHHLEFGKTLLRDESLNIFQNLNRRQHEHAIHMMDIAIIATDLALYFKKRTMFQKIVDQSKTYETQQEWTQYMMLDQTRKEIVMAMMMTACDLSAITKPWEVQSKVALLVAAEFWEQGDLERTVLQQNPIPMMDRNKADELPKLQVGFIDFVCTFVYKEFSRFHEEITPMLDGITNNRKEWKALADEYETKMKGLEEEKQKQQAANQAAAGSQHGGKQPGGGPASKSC
T1 chain 2: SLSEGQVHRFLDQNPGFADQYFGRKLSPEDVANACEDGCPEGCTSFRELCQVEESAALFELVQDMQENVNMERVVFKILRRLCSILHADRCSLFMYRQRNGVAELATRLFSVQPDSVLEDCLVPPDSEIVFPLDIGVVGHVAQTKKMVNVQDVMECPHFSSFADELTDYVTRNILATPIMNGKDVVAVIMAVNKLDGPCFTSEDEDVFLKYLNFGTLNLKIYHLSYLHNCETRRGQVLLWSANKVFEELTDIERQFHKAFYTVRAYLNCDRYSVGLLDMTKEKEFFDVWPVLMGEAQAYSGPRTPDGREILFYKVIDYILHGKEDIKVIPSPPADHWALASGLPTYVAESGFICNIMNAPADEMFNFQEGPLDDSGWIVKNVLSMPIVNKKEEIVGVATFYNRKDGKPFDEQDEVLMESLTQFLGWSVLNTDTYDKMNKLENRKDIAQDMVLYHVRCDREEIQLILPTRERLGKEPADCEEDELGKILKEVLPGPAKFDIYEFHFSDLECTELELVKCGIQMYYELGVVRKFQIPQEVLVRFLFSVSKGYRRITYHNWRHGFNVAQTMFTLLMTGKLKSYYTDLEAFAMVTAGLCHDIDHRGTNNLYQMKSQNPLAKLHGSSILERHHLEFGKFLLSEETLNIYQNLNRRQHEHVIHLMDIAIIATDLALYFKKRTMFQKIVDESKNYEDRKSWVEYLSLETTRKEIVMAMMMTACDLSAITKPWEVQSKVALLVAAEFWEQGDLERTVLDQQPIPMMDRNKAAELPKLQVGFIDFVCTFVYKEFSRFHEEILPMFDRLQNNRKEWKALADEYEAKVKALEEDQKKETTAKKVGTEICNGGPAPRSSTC

[2] = molecular target: T1, PDE catalytic subunit (PDEcat)
transducin α (Tα-S*) = transducin α (Tα-S*) (Bos taurus, UniProt P04695); assay: PDE activation assay fit (solution)
Sequence of transducin α (Tα-S*) (P04695 2-350): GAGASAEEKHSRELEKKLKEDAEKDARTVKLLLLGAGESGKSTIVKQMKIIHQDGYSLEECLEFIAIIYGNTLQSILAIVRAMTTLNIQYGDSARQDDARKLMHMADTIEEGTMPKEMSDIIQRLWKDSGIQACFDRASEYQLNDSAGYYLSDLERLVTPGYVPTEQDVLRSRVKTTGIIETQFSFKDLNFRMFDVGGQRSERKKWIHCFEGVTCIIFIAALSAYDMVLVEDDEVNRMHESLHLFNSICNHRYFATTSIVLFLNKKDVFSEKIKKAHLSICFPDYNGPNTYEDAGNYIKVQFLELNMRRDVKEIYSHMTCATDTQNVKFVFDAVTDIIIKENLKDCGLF

Sequence of transducin α (Tα*) (P04695 2-350): as above

B1: PDEγ (protein)
chain: MNLEPPKAEIRSATRVMGGPVTPRKGPPKFKQRQTRQFKSKPPKKGVQGFGDDIPGMEGLGTDITVICPWEAFNHLELHELAQYGII
modifications: activated Tα, membranes
Question: With B1 as the binder, how does the Kd (transducin α (Tα*)) read?
Answer: 0.0565 nM

B2: PDEγ (protein)
chain: MNLEPPKAEIRSATRVMGGPVTPRKGPPKFKQRQTRQFKSKPPKKGVQGFGDDIPGMEGLGTDITVICPWEAFNHLELHELAQYGII
modifications: membranes
Question: B2 was tested. Which Kd [1] did it give?
Answer: 0.055 nM

B3: PDEγ (protein)
chain: MNLEPPKAEIRSATRVMGGPVTPRKGPPKFKQRQTRQFKSKPPKKGVQGFGDDIPGMEGLGTDITVICPWEAFNHLELHELAQYGII
Question: With B3 as the binder, how does the Kd [2] read?
Answer: 0.005 nM

B4: PDEγ (protein)
chain: MNLEPPKAEIRSATRVMGGPVTPRKGPPKFKQRQTRQFKSKPPKKGVQGFGDDIPGMEGLGTDITVICPWEAFNHLELHELAQYGII
modifications: GTPγS-bound Tα
Question: Which Kd (transducin α (Tα-S*)) does the source give for B4 here?
Answer: 4.5 nM
